The term Kd denotes a measure of binding affinity in units of concentration. Lower therefore signals a tighter complex.

For assay [1], the system named is live NL-Bal viruses. Format: cell-based, HIV-1. The following applies: live NL-Bal virus, JC53-BL cells, luciferase activity.
Assay [2] addresses biotinylated HR1 peptide Biotin-T-2324 (HIV-1 gp41 HR1) (Human immunodeficiency virus type 1 group M subtype B, UniProt P04582, G556A). Put plainly: Binding affinity of HR2 containing polypeptides to HR1 by Surface Plasmon Resonance (BIAcore 3000). The settings on record: SPR, 25° C., immobilized HR1 peptide Biotin-T-2324, 1:1 Langmuir model. A general note: Surface plasmon resonance follows binding to a sensor surface in real time, without labels.

In assay [3] the test system is pseudotyped NL-Bal viruses. The following applies: pseudotyped NL-Bal virus, single-cycle, JC53-BL cells.
For assay [4], the system named is HIV-1 JR-CSF virus.
Description: Human PBMC were isolated from buffy-coats (obtained from the Stanford Blood Center) by a Ficoll-Paque (Amersham, Piscataway, N.J., USA) density gradient centrifugation according to manufacturer's protocol. Briefly, blood was transferred from the buffy coats in 50 ml conical tubes and diluted with sterile Dulbecco's phosphate buffered saline (Invitrogen/Gibco) to a final volume of 50 ml. Twenty-five ml of the diluted blood was transferred to two 50 ml conical tubes, carefully underlayerd with 12.5 ml of Ficoll-Paque Plus (Amersham Biosciences) and centrifuged at room temperature for 20 min. at 450×g without braking. The white cell layer was carefully transferred to a new 50 ml conical tube and washed twice with PBS. To remove remaining red blood cells, cells were incubated for 5 min. at room temperature with ACK lysis buffer (Biosource) and washed one more time with PBS. PBMC were counted and incubated at a concentration of 2-4×10^6 cells/ml in RPMI1640 containing 10% FCS (Invitrogen/Gibco), 1% penicillin/streptomycin, 2 mM L-glutamine, 1 mM sodium-pyruvate, and 2 μg/ml Phytohemagglutinin (Invitrogen) for 24 h at 37° C. […] Virus production was measured at the end of infection by using p24 ELISA (HIV-1 p24 ELISA #NEK050B) using the sigmoid dose-response model with one binding site in Microsoft Excel Fit (version 3.0.5 Build12; equation 205; Microsoft).

No end group written: not given here.

In the case of “4970/4802: anti-IGF-1R IgG1: wt light chain 4802, heavy chain 4970 with T-651 conjugated C-terminally via linker SEQ ID NO: 11 (GGGGSGGGGSGGGGSGGNMTWMEWDREINNYTSLIHSLIEESQNQQEKNEQELL; also: fused C-terminally to heavy chain of anti-IGF-1R IgG1)”, the “Antiviral activity % Inhibition at 20 μg/mL” value in assay [1] is 20%. In assay [2], the KA amounted to 9.11e+10 M⁻¹, the dissociation constant Kd was found to be 0.011 nM, the ka was determined as 1.01e+06 M⁻¹ s⁻¹ and the kd worked out at 1.11e-05 s⁻¹. In addition, the “Antiviral activity % Inhibition at 20 μg/mL” value in assay [3] is 15%.

With “4972/4802: anti-IGF-1R IgG1: wt light chain 4802, heavy chain 4972 with T-2635 conjugated C-terminally via linker SEQ ID NO: 11 (GGGGSGGGGSGGGGSGGTTWEAWDRAIAEYAARIEALIRAAQEQQEKNEAALREL; also: fused C-terminally to heavy chain of anti-IGF-1R IgG1)”, the “Antiviral activity % Inhibition at 20 μg/mL” value in assay [1] was 43%. In assay [2], the KA is 1.01e+10 M⁻¹, the Kd stood at 0.0987 nM, the ka came out at 786000 M⁻¹ s⁻¹ and the kd was determined as 7.76e-05 s⁻¹. Besides, the “Antiviral activity % Inhibition at 20 μg/mL” value in assay [3] was found to be 27%.

Take “4976/4818: anti-IGF-1R IgG1: light chain 4976 with T-651 N-terminal (including variable domain), wt heavy chain 4818 (QIWNNMTWMEWDREINNYTSLIHSLIEESQNQQEKNEQELLGGGGSGGGGSGGGGSGAS; also: fused N-terminally to light chain of anti-IGF-1R IgG1)”: the “Antiviral activity % Inhibition at 20 μg/mL” value in assay [1] was found to be 38%. In addition, in assay [2], the KA worked out at 2.63e+10 M⁻¹; the affinity, expressed as Kd, was 0.038 nM; the ka amounted to 923000 M⁻¹ s⁻¹; the kd is 3.51e-05 s⁻¹. Besides, the “Antiviral activity % Inhibition at 20 μg/mL” value in assay [3] came to 17%.

For `CC[C@H](C)[C@H](NC(=O)[C@H](C)NC(=O)[C@H](CCCNC(=N)N)NC(=O)[C@H](CC(=O)O)NC(=O)[C@H](Cc1c[nH]c2ccccc12)NC(=O)[C@H](C)NC(=O)[C@H](CCC(=O)O)NC(=O)[C@H](Cc1c[nH]c2ccccc12)NC(=O)[C@@H](NC(=O)[C@@H](NC(C)=O)[C@@H](C)O)[C@@H](C)O)C(=O)N[C@@H](C)C(=O)N[C@@H](CCC(=O)O)C(=O)N[C@@H](Cc1ccc(O)cc1)C(=O)N[C@@H](C)C(=O)N[C@@H](C)C(=O)N[C@@H](CCCNC(=N)N)C(=O)N[C@H](C(=O)N[C@@H](CCC(=O)O)C(=O)N[C@@H](C)C(=O)N[C@@H](CC(C)C)C(=O)N[C@H](C(=O)N[C@@H](CCCNC(=N)N)C(=O)N[C@@H](C)C(=O)N[C@@H](C)C(=O)N[C@@H](CCC(N)=O)C(=O)N[C@@H](CCC(=O)O)C(=O)N[C@@H](CCC(N)=O)C(=O)N[C@@H](CCC(N)=O)C(=O)N[C@@H](CCC(=O)O)C(=O)N[C@@H](CCCCN)C(=O)N[C@@H](CC(N)=O)C(=O)N[C@@H](CCC(=O)O)C(=O)N[C@@H](C)C(=O)N[C@@H](C)C(=O)N[C@@H](CC(C)C)C(=O)N[C@@H](CCCNC(=N)N)C(=O)N[C@@H](CCC(=O)O)C(=O)N[C@@H](CC(C)C)C(N)=O)[C@@H](C)CC)[C@@H](C)CC` [Compound T-2635], the “Antiviral activity IC50” value in assay [4] stood at 0.004 µg/mL.

Take enfuvirtide: the “Antiviral activity IC50” value in assay [3] (3 day incubation, luciferase activity) was found to be 0.38 µg/mL.

These data come from patent US20070148180A1, “Peptide-immunoglobulin-conjugate” (priority 2005, published 2007).
